In the Human Domainome abundance scans (Beltran et al. 2025):
± gives the uncertainty stated by the source.

B1: Peripheral plasma membrane protein CASK, residues 488 to 569; numbered along this chain, O14936 (parent)
chain: VRLVQFQKNTDEPMGITLKMNELNHCIVARIMHGGMIHRQGTLHVGDEIREINGISVANQTVEQLQKMLREMRGSITFKIVP

Variants of: B1
Assay: abundance fitness (aPCA) (normalised: wild type 0, dead -1); higher = more abundant; growth selection in yeast, the domain comes from the species named
Conditions: Homo sapiens

V1G and V1L are within error of each other in abundance fitness: -0.037 ± 0.028 for the first, -0.098 ± 0.035 for the second.

V1D and V1Y are within error of each other in abundance fitness: 0.055 ± 0.039 for the first, 0.017 ± 0.059 for the second.

First: V1S
Second: V1H
The abundance fitness of the first is higher: -0.095 ± 0.038 for the first, -0.207 ± 0.069 for the second.

V1I and V1E are within error of each other in abundance fitness: 0.085 ± 0.042 for the first, 0.03 ± 0.043 for the second.

V1N and V1C are within error of each other in abundance fitness: 0.037 ± 0.048 for the first, -0.056 ± 0.047 for the second.

V1W and V1A are within error of each other in abundance fitness: -0.122 ± 0.047 for the first, -0.119 ± 0.033 for the second.

V1T and V1K are within error of each other in abundance fitness: 0.015 ± 0.043 for the first, -0.046 ± 0.063 for the second.

First: V1F
Second: V1Q
The abundance fitness of the first is higher: -0.026 ± 0.049 for the first, -0.189 ± 0.09 for the second.

First: V1R
Second: V1M
The abundance fitness of the first is lower: -0.177 ± 0.043 for the first, 0.099 ± 0.045 for the second.

Compared with V1P, M14R is lower in abundance fitness: -0.376 ± 0.11 for the first, -0.858 ± 0.078 for the second.

First: M14N
Second: M14S
The abundance fitness of the first is lower: -0.337 ± 0.047 for the first, -0.149 ± 0.033 for the second.

Compared with M14A, M14K is lower in abundance fitness: -0.078 ± 0.036 for the first, -0.784 ± 0.1 for the second.

Compared with M14W, M14I is higher in abundance fitness: -0.042 ± 0.05 for the first, 0.055 ± 0.037 for the second.

First: M14Q
Second: M14Y
The abundance fitness of the first is lower: -0.531 ± 0.07 for the first, -0.206 ± 0.049 for the second.

M14L and M14V are within error of each other in abundance fitness: 0.001 ± 0.029 for the first, -0.017 ± 0.032 for the second.

M14C and M14T are within error of each other in abundance fitness: -0.127 ± 0.046 for the first, -0.165 ± 0.042 for the second.

M14F and K19R are within error of each other in abundance fitness: -0.01 ± 0.04 for the first, -0.017 ± 0.023 for the second.

First: K19T
Second: K19C
The abundance fitness of the first is higher: -0.009 ± 0.03 for the first, -0.089 ± 0.036 for the second.

K19L and K19H are within error of each other in abundance fitness: -0.026 ± 0.028 for the first, -0.01 ± 0.04 for the second.

K19N and K19I are within error of each other in abundance fitness: -0.037 ± 0.044 for the first, -0.102 ± 0.045 for the second.

K19Y and K19M are within error of each other in abundance fitness: -0.01 ± 0.041 for the first, -0.071 ± 0.033 for the second.

Compared with K19V, K19W is lower in abundance fitness: -0.008 ± 0.025 for the first, -0.195 ± 0.03 for the second.

Compared with K19P, K19F is higher in abundance fitness: -0.999 ± 0.1 for the first, -0.041 ± 0.036 for the second.

K19Q and K19D are the same in abundance fitness: -0.016 ± 0.035 for the first, -0.016 ± 0.035 for the second.

K19A and K19E are within error of each other in abundance fitness: 0.022 ± 0.026 for the first, -0.029 ± 0.037 for the second.

Compared with K19G, P13Q is lower in abundance fitness: 0.025 ± 0.023 for the first, -0.183 ± 0.078 for the second.

P13S and P13W are within error of each other in abundance fitness: -0.036 ± 0.045 for the first, -0.102 ± 0.098 for the second.

P13L and P13Y are within error of each other in abundance fitness: -0.125 ± 0.04 for the first, -0.154 ± 0.056 for the second.

Going from P13I to P13C, the abundance fitness rises from -0.154 ± 0.054 to 0.024 ± 0.06.

P13K and P13D are within error of each other in abundance fitness: 0.055 ± 0.07 for the first, -0.028 ± 0.085 for the second.

P13N and P13H are within error of each other in abundance fitness: -0.021 ± 0.042 for the first, -0.054 ± 0.051 for the second.

P13E and P13F are within error of each other in abundance fitness: -0.119 ± 0.091 for the first, -0.126 ± 0.059 for the second.

P13M and P13T are within error of each other in abundance fitness: -0.1 ± 0.098 for the first, -0.041 ± 0.052 for the second.

P13A and P13V are within error of each other in abundance fitness: -0.065 ± 0.07 for the first, -0.046 ± 0.052 for the second.

Going from P13G to P13R, the abundance fitness falls from -0.024 ± 0.054 to -0.183 ± 0.046.

First: R2G
Second: R2E
The abundance fitness of the first is lower: -0.225 ± 0.024 for the first, -0.028 ± 0.034 for the second.

Going from R2C to R2N, the abundance fitness rises from -0.09 ± 0.049 to 0.091 ± 0.057.

R2Y and R2S are within error of each other in abundance fitness: -0.002 ± 0.065 for the first, -0.084 ± 0.036 for the second.

Going from R2A to R2T, the abundance fitness rises from -0.149 ± 0.03 to -0.038 ± 0.038.

R2K and R2I are within error of each other in abundance fitness: -0.055 ± 0.036 for the first, -0.029 ± 0.06 for the second.

Compared with R2M, R2D is lower in abundance fitness: 0.019 ± 0.033 for the first, -0.149 ± 0.054 for the second.

First: R2L
Second: R2H
The abundance fitness of the first is lower: -0.159 ± 0.036 for the first, -0.05 ± 0.061 for the second.

Compared with R2V, K8Q is higher in abundance fitness: -0.089 ± 0.029 for the first, 0.004 ± 0.031 for the second.

K8M and K8A are within error of each other in abundance fitness: -0.087 ± 0.032 for the first, -0.071 ± 0.025 for the second.

Going from K8I to K8W, the abundance fitness falls from 0.002 ± 0.045 to -0.136 ± 0.026.

First: K8E
Second: K8S
The abundance fitness of the first is lower: -0.505 ± 0.036 for the first, -0.169 ± 0.029 for the second.

K8P and K8C are within error of each other in abundance fitness: -0.256 ± 0.034 for the first, -0.326 ± 0.038 for the second.

First: K8R
Second: K8N
The abundance fitness of the first is higher: -0.021 ± 0.022 for the first, -0.098 ± 0.043 for the second.

Compared with K8D, K8T is higher in abundance fitness: -0.403 ± 0.045 for the first, -0.179 ± 0.032 for the second.

Compared with K8G, K8L is higher in abundance fitness: -0.242 ± 0.022 for the first, -0.028 ± 0.024 for the second.

First: K8F
Second: K8V
The abundance fitness of the first is lower: -0.291 ± 0.051 for the first, -0.007 ± 0.023 for the second.

Compared with K8Y, D11N is higher in abundance fitness: -0.093 ± 0.043 for the first, 0.08 ± 0.05 for the second.

Going from D11H to D11I, the abundance fitness falls from 0.075 ± 0.077 to -0.142 ± 0.074.

D11M and D11L are within error of each other in abundance fitness: -0.11 ± 0.06 for the first, -0.092 ± 0.038 for the second.

D11Q and D11R are within error of each other in abundance fitness: 0.021 ± 0.05 for the first, -0.023 ± 0.029 for the second.

D11T and D11K are within error of each other in abundance fitness: 0.055 ± 0.049 for the first, -0.054 ± 0.061 for the second.

Going from D11E to D11W, the abundance fitness falls from -0.05 ± 0.03 to -0.175 ± 0.038.

Compared with D11G, D11Y is lower in abundance fitness: -0.034 ± 0.029 for the first, -0.22 ± 0.077 for the second.

D11A and D11S are within error of each other in abundance fitness: -0.027 ± 0.031 for the first, 0.009 ± 0.04 for the second.

D11F and D11C are within error of each other in abundance fitness: -0.251 ± 0.16 for the first, -0.136 ± 0.057 for the second.

D11V and D11P are within error of each other in abundance fitness: -0.072 ± 0.032 for the first, -0.069 ± 0.043 for the second.

Q7V and Q7E are within error of each other in abundance fitness: 0.001 ± 0.022 for the first, 0.048 ± 0.026 for the second.

Q7N and Q7S are within error of each other in abundance fitness: 0.02 ± 0.043 for the first, -0.042 ± 0.025 for the second.

Q7Y and Q7R are within error of each other in abundance fitness: 0.021 ± 0.043 for the first, -0.025 ± 0.022 for the second.

Q7H and Q7A are within error of each other in abundance fitness: 0.009 ± 0.043 for the first, -0.025 ± 0.024 for the second.

Going from Q7L to Q7P, the abundance fitness falls from -0.027 ± 0.025 to -0.177 ± 0.034.

Q7K and Q7W are within error of each other in abundance fitness: -0.017 ± 0.029 for the first, -0.037 ± 0.025 for the second.

Q7I and Q7T are within error of each other in abundance fitness: 0.074 ± 0.036 for the first, 0.041 ± 0.03 for the second.

Compared with Q7D, Q7F is lower in abundance fitness: 0.079 ± 0.032 for the first, -0.021 ± 0.041 for the second.

Q7C and T10N are within error of each other in abundance fitness: 0.021 ± 0.035 for the first, -0.075 ± 0.061 for the second.

T10M and T10L are within error of each other in abundance fitness: -0.007 ± 0.042 for the first, -0.05 ± 0.033 for the second.

T10Q and T10D are within error of each other in abundance fitness: -0.111 ± 0.044 for the first, -0.026 ± 0.057 for the second.

T10G and T10K are within error of each other in abundance fitness: -0.01 ± 0.024 for the first, -0.029 ± 0.04 for the second.

First: T10W
Second: T10C
The abundance fitness of the first is lower: -0.086 ± 0.031 for the first, 0.066 ± 0.041 for the second.

T10H and T10E are within error of each other in abundance fitness: -0.064 ± 0.071 for the first, -0.07 ± 0.032 for the second.

T10F and T10I are within error of each other in abundance fitness: 0.012 ± 0.085 for the first, -0.081 ± 0.06 for the second.

T10P and T10Y are within error of each other in abundance fitness: -0.045 ± 0.044 for the first, -0.097 ± 0.064 for the second.

T10A and T10V are within error of each other in abundance fitness: -0.075 ± 0.028 for the first, -0.113 ± 0.028 for the second.

Going from T17S to T17H, the abundance fitness rises from -0.051 ± 0.023 to 0.031 ± 0.029.

First: T17A
Second: T17I
The abundance fitness of the first is lower: -0.079 ± 0.024 for the first, 0.092 ± 0.03 for the second.

T17Q and T17L are within error of each other in abundance fitness: -0.001 ± 0.029 for the first, 0.019 ± 0.023 for the second.

T17E and T17M are within error of each other in abundance fitness: -0.019 ± 0.028 for the first, -0.046 ± 0.029 for the second.

Going from T17N to T17K, the abundance fitness rises from -0.09 ± 0.032 to 0.015 ± 0.03.

In the case of T17F, the abundance fitness is reported as -0.071 ± 0.045.
